The text below walks through data of article PMC11480844 (2024).

To fix the notation:
B1: H2-Kb / Ed9 (parent complex)
chain 1: AQSVTQPDARVTVSEGASLQLRCKYSYFGTPYLFWYVQYPRQGLQLLLKYYPGDPVVQGVNGFEAEFSKSNSSFHLRKASVHWSDWAVYFCAVSITGGYKVVFGSGTRLLVSP
chain 2: DSGVVQSPRHIIKEKGGRSVLTCIPISGHSNVVWYQQTLGKELKFLIQHYEKVERDKGFLPSRFSVQQFDDYHSEMNMSALELEDSAMYFCASSPRQSDYTFGSGTRLLVI
chain 3: not shown
chain 4: IQKTPQIQVYSRHPPENGKPNILNCYVTQFHPPHIEIQMLKNGKKIPKVEMSDMSFSKDWSFYILAHTEFTPTETDTYACRVKHDSMAEPKTVYWDRDM
chain 5: SIINFEKL
B2: H2-Kb / Ed23 (parent complex)
chain 1: QQKVQQSPESLTVSEGAMASLNCTFSDRSSDNFRWYRQHSGKGLEVLVSIFSDGEKEEGSFTAHLNRASLHVFLHIREPQPSDSALYLCAVRGFWTNKVVFGTGTRLQVLP
chain 2: AQTIHQWPVAEIKAVGSPLSLGCTIKGKSSPNLYWYWQATGGTLQQLFYSITVGQVESVVQLNLSASRPKDDQFILSTEKLLLSHSGFYLCAWSPRQSSYEQYFGPGTRLTVL
chain 3: not shown
chain 4: B1 chain 4
chain 5: SIINFEKL
Note: test concentration or dose not given here.

The first experiment covers variants of B1. Nature of the experiment: % of reporter cells activated (NFAT-GFP), raw.
chain 5 L8K: the ratio to parent turned out to be 1.09.

For chain 5 L8W, the ratio to parent is 1. On the same count and under the same terms, for chain 5 L8T the value was 1.09. On the same count and under the same terms, for chain 5 L8S the value was 0.899; for chain 5 L8Y, 1.23. On to chain 5 L8I, for which the ratio to parent was 1.17.

As for chain 5 L8G, the ratio to parent came to 1. chain 5 L8N: the ratio to parent was determined as 0.883.

As to chain 5 L8F, the ratio to parent came to 1.14. Consider chain 5 I3Y, for which the ratio to parent was 0.0606.

Take chain 5 I3A: the ratio to parent is 0.184. The same measure, in the same setting: for chain 5 N4V the value was 0.0308. Still for that read-out and setting: in the case of chain 5 N4Q it was 0.0236; in that of chain 5 N4E, 0.00953; in that of chain 5 N4P, 0.0766.

As for chain 5 N4F, the ratio to parent is 0.012. The same measure, in the same setting: for chain 5 N4S the value was 0.0154. Same read-out and setting: for chain 5 N4A the value was 0.0077; for chain 5 F5E, 1.03; for chain 5 F5N, 1.15. On the same count and under the same terms, in the case of chain 5 F5Y it was 1.22.

In the case of chain 5 F5S, the ratio to parent came out at 1.31. Take chain 5 I2Q: the ratio to parent was determined as 0.82. Same read-out and setting: in the case of chain 5 I2F it was 1.13; in that of chain 5 E6Y, 0.0945; in that of chain 5 S1D, 0.125.

Take chain 5 S1V: the ratio to parent was 0.0112.

Consider chain 5 S1P, for which the ratio to parent turned out to be 0.0373. Still for that read-out and setting: for chain 5 S1I the value was 0.0106; for chain 5 K7T, 0.957. Still for that read-out and setting: in the case of chain 5 K7E it was 0.226. The same measure, in the same setting: in the case of chain 5 K7M it was 0.546.

The variants in another experiment derive from B2. Put plainly: % of reporter cells activated (NFAT-GFP), raw.
As to chain 5 E6H, the ratio to parent turned out to be 0.551. For chain 5 E6K, the ratio to parent turned out to be 1.14.

Regarding chain 5 E6D, the ratio to parent stood at 0.828.

In the case of chain 5 E6R, the ratio to parent was found to be 0.316. The same measure, in the same setting: for chain 5 E6Y the value was 0.588; for chain 5 E6W, 0.0503. On the same count and under the same terms, in the case of chain 5 E6F it was 0.147; in that of chain 5 E6L, 0.0247; in that of chain 5 E6M, 0.486. Same read-out and setting: for chain 5 E6Q the value was 0.604; for chain 5 E6V, 0.0859; for chain 5 E6N, 0.0348. Take chain 5 E6A: the ratio to parent came to 0.157.

For the variant chain 5 E6T, the ratio to parent worked out at 0.0505.

As for chain 5 E6G, the ratio to parent is 1.28. Same read-out and setting: for chain 5 E6S the value was 0.0871.

For chain 5 E6I, the ratio to parent came out at 0.0187. As to chain 5 E6P, the ratio to parent turned out to be 0.0439. The same measure, in the same setting: for chain 5 S1Y the value was 0.886; for chain 5 S1I, 0.218; for chain 5 S1C, 0.722. Regarding chain 5 S1K, the ratio to parent was found to be 0.558. Same read-out and setting: for chain 5 S1G the value was 0.896; for chain 5 S1D, 0.735; for chain 5 S1H, 0.523. On the same count and under the same terms, in the case of chain 5 S1A it was 1.26; in that of chain 5 S1N, 0.27. The same measure, in the same setting: for chain 5 S1F the value was 0.207; for chain 5 S1P, 1.46.

As to chain 5 S1R, the ratio to parent amounted to 1.01. On the same count and under the same terms, in the case of chain 5 S1T it was 1.64.

For the variant chain 5 S1V, the ratio to parent is 1.12. The same measure, in the same setting: for chain 5 N4R the value was 1.22; for chain 5 N4M, 0.269; for chain 5 N4I, 0.277. Still for that read-out and setting: for chain 5 N4D the value was 0.0424. Turning to chain 5 N4A, the ratio to parent worked out at 0.18. Still for that read-out and setting: in the case of chain 5 N4F it was 0.586. Still for that read-out and setting: in the case of chain 5 N4H it was 1.04. In the case of chain 5 N4S, the ratio to parent is 0.42. For the variant chain 5 N4E, the ratio to parent turned out to be 0.415.

As for chain 5 N4W, the ratio to parent is 1.13. Still for that read-out and setting: in the case of chain 5 N4K it was 0.869. On the same count and under the same terms, in the case of chain 5 N4Y it was 0.813; in that of chain 5 N4T, 0.342.

As for chain 5 N4V, the ratio to parent was 0.207. On the same count and under the same terms, in the case of chain 5 K7F it was 0.0793.

With chain 5 K7L, the ratio to parent was 0.477. For the variant chain 5 K7S, the ratio to parent worked out at 1. On the same count and under the same terms, for chain 5 K7G the value was 1.18; for chain 5 K7V, 0.48. On the same count and under the same terms, in the case of chain 5 K7C it was 0.919; in that of chain 5 K7N, 0.785; in that of chain 5 K7A, 0.598.

Consider chain 5 K7M, for which the ratio to parent was 1.12. Same read-out and setting: in the case of chain 5 K7R it was 1.42. On to chain 5 K7T, for which the ratio to parent amounted to 0.145. Still for that read-out and setting: in the case of chain 5 K7P it was 0.798. On the same count and under the same terms, in the case of chain 5 K7H it was 0.333; in that of chain 5 K7W, 0.975; in that of chain 5 I2C, 1.38. Same read-out and setting: in the case of chain 5 I2E it was 1.39; in that of chain 5 I2K, 1.54. With chain 5 I2P, the ratio to parent turned out to be 1.38. Same read-out and setting: in the case of chain 5 I2Q it was 1.39; in that of chain 5 I2V, 1.42; in that of chain 5 I2L, 1.49. The same measure, in the same setting: for chain 5 I2G the value was 0.952.

For chain 5 I2A, the ratio to parent was 1.3. On the same count and under the same terms, for chain 5 I2H the value was 1.36; for chain 5 I2R, 1.72. Still for that read-out and setting: for chain 5 I2N the value was 1.49; for chain 5 I2Y, 0.96.

chain 5 I2D: the ratio to parent was determined as 1.31. On the same count and under the same terms, in the case of chain 5 I2S it was 1.12; in that of chain 5 I2W, 1.07; in that of chain 5 I2F, 1.21.

Take chain 5 I2M: the ratio to parent stood at 1.46.

With chain 5 I3S, the ratio to parent was 1.23. Same read-out and setting: for chain 5 I3V the value was 1.41. On the same count and under the same terms, in the case of chain 5 I3D it was 0.768; in that of chain 5 I3W, 0.975; in that of chain 5 I3R, 0.636. On the same count and under the same terms, for chain 5 I3Q the value was 1.22; for chain 5 I3K, 0.952; for chain 5 I3G, 1.04. As to chain 5 I3L, the ratio to parent is 1.4. Take chain 5 I3Y: the ratio to parent came to 0.17.

chain 5 I3A: the ratio to parent turned out to be 1.06.

For chain 5 F5S, the ratio to parent was determined as 1.19.

Turning to chain 5 F5I, the ratio to parent amounted to 1.25. For chain 5 F5M, the ratio to parent is 1.15. The same measure, in the same setting: in the case of chain 5 F5N it was 1.28; in that of chain 5 F5T, 1.33; in that of chain 5 F5G, 0.894.

In the case of chain 5 F5A, the ratio to parent came out at 1.36. Same read-out and setting: for chain 5 F5K the value was 1.19; for chain 5 F5D, 0.997.

With chain 5 F5V, the ratio to parent was 1.33. Same read-out and setting: in the case of chain 5 F5R it was 1.28; in that of chain 5 F5E, 0.937. On the same count and under the same terms, for chain 5 F5H the value was 1.37; for chain 5 F5Y, 1.32. On the same count and under the same terms, in the case of chain 5 F5C it was 1.3; in that of chain 5 F5P, 0.864; in that of chain 5 F5W, 1.08. For the variant chain 5 L8I, the ratio to parent is 1.15. Turning to chain 5 L8P, the ratio to parent is 1.24. Still for that read-out and setting: for chain 5 L8C the value was 1.06; for chain 5 L8R, 1.26; for chain 5 L8F, 1.13.

Consider chain 5 L8V, for which the ratio to parent came to 0.856. On the same count and under the same terms, in the case of chain 5 L8G it was 1.11. For the variant chain 5 L8Y, the ratio to parent came out at 1.24. For chain 5 L8K, the ratio to parent stood at 1.23. Same read-out and setting: in the case of chain 5 L8W it was 0.934; in that of chain 5 L8Q, 1.21. With chain 5 L8N, the ratio to parent was 1.05.
